For this experiment, the target named is purified wild-type N1 (C-terminal His tag) (vaccinia virus) (UniProt P17361). In words: SEC-MALS.

The substance “purified wild-type N1 (C-terminal His tag) (from UniProt P17361) (natural protein)” had a stoichiometry N of 2.

The record behind these values is PMC3240604.
